Results from ChEMBL document CHEMBL2074551, “Drug resistance and ATP-dependent conjugate transport mediated by the apical multidrug resistance protein, MRP2, permanently expressed in human and canine cells” (Mol Pharmacol, 1999).

B1: ATP-binding cassette sub-family C member 2 (Homo sapiens) (protein)
chain: MLEKFCNSTFWNSSFLDSPEADLPLCFEQTVLVWIPLGYLWLLAPWQLLHVYKSRTKRSSTTKLYLAKQVFVGFLLILAAIELALVLTEDSGQATVPAVRYTNPSLYLGTWLLVLLIQYSRQWCVQKNSWFLSLFWILSILCGTFQFQTLIRTLLQGDNSNLAYSCLFFISYGFQILILIFSAFSENNESSNNPSSIASFLSSITYSWYDSIILKGYKRPLTLEDVWEVDEEMKTKTLVSKFETHMKRELQKARRALQRRQEKSSQQNSGARLPGLNKNQSQSQDALVLEDVEKKKKKSGTKKDVPKSWLMKALFKTFYMVLLKSFLLKLVNDIFTFVSPQLLKLLISFASDRDTYLWIGYLCAILLFTAALIQSFCLQCYFQLCFKLGVKVRTAIMASVYKKALTLSNLARKEYTVGETVNLMSVDAQKLMDVTNFMHMLWSSVLQIVLSIFFLWRELGPSVLAGVGVMVLVIPINAILSTKSKTIQVKNMKNKDKRLKIMNEILSGIKILKYFAWEPSFRDQVQNLRKKELKNLLAFSQLQCVVIFVFQLTPVLVSVVTFSVYVLVDSNNILDAQKAFTSITLFNILRFPLSMLPMMISSMLQASVSTERLEKYLGGDDLDTSAIRHDCNFDKAMQFSEASFTWEHDSEATVRDVNLDIMAGQLVAVIGPVGSGKSSLISAMLGEMENVHGHITIKGTTAYVPQQSWIQNGTIKDNILFGTEFNEKRYQQVLEACALLPDLEMLPGGDLAEIGEKGINLSGGQKQRISLARATYQNLDIYLLDDPLSAVDAHVGKHIFNKVLGPNGLLKGKTRLLVTHSMHFLPQVDEIVVLGNGTIVEKGSYSALLAKKGEFAKNLKTFLRHTGPEEEATVHDGSEEEDDDYGLISSVEEIPEDAASITMRRENSFRRTLSRSSRSNGRHLKSLRNSLKTRNVNSLKEDEELVKGQKLIKKEFIETGKVKFSIYLEYLQAIGLFSIFFIILAFVMNSVAFIGSNLWLSAWTSDSKIFNSTDYPASQRDMRVGVYGALGLAQGIFVFIAHFWSAFGFVHASNILHKQLLNNILRAPMRFFDTTPTGRIVNRFAGDISTVDDTLPQSLRSWITCFLGIISTLVMICMATPVFTIIVIPLGIIYVSVQMFYVSTSRQLRRLDSVTRSPIYSHFSETVSGLPVIRAFEHQQRFLKHNEVRIDTNQKCVFSWITSNRWLAIRLELVGNLTVFFSALMMVIYRDTLSGDTVGFVLSNALNITQTLNWLVRMTSEIETNIVAVERITEYTKVENEAPWVTDKRPPPDWPSKGKIQFNNYQVRYRPELDLVLRGITCDIGSMEKIGVVGRTGAGKSSLTNCLFRILEAAGGQIIIDGVDIASIGLHDLREKLTIIPQDPILFSGSLRMNLDPFNNYSDEEIWKALELAHLKSFVASLQLGLSHEVTEAGGNLSIGQRQLLCLGRALLRKSKILVLDEATAAVDLETDNLIQTTIQNEFAHCTVITIAHRLHTIMDSDKVMVLDNGKIIECGSPEELLQIPGPFYFMAKEAGIENVNSTKF
B2: ATP-binding cassette sub-family C member 2 (Rattus norvegicus) (protein)
chain: MDKFCNSTFWDLSLLESPEADLPLCFEQTVLVWIPLGFLWLLAPWQLYSVYRSRTKRSSITKFYLAKQVFVVFLLILAAIDLSLALTEDTGQATVPPVRYTNPILYLCTWLLVLAVQHSRQWCVRKNSWFLSLFWILSVLCGVFQFQTLIRALLKDSKSNMAYSYLFFVSYGFQIVLLILTAFSGPSDSTQTPSVTASFLSSITFSWYDRTVLKGYKHPLTLEDVWDIDEGFKTRSVTSKFEAAMTKDLQKARQAFQRRLQKSQRKPEATLHGLNKKQSQSQDVLVLEEAKKKSEKTTKDYPKSWLIKSLFKTFHVVILKSFILKLIHDLLVFLNPQLLKLLIGFVKSSNSYVWFGYICAILMFAVTLIQSFCLQSYFQHCFVLGMCVRTTVMSSIYKKALTLSNLARKQYTIGETVNLMSVDSQKLMDATNYMQLVWSSVIQITLSIFFLWRELGPSILAGVGVMVLLIPVNGVLATKIRNIQVQNMKNKDKRLKIMNEILSGIKILKYFAWEPSFQEQVQGIRKKELKNLLRFGQLQSLLIFILQITPILVSVVTFSVYVLVDSANVLNAEKAFTSITLFNILRFPLSMLPMVTSSILQASVSVDRLERYLGGDDLDTSAIRRVSNFDKAVKFSEASFTWDPDLEATIQDVNLDIKPGQLVAVVGTVGSGKSSLVSAMLGEMENVHGHITIQGSTAYVPQQSWIQNGTIKDNILFGSEYNEKKYQQVLKACALLPDLEILPGGDMAEIGEKGINLSGGQKQRVSLARAAYQDADIYILDDPLSAVDAHVGKHIFNKVVGPNGLLAGKTRIFVTHGIHFLPQVDEIVVLGKGTILEKGSYRDLLDKKGVFARNWKTFMKHSGPEGEATVNNDSEAEDDDDGLIPTMEEIPEDAASLAMRRENSLRRTLSRSSRSSSRRGKSLKNSLKIKNVNVLKEKEKEVEGQKLIKKEFVETGKVKFSIYLKYLQAVGWWSILFIILFYGLNNVAFIGSNLWLSAWTSDSDNLNGTNNSSSHRDMRIGVFGALGLAQGICLLISTLWSIYACRNASKALHGQLLTNILRAPMRFFDTTPTGRIVNRFSGDISTVDDLLPQTLRSWMMCFFGIAGTLVMICMATPVFAIIIIPLSILYISVQVFYVATSRQLRRLDSVTKSPIYSHFSETVTGLPIIRAFEHQQRFLAWNEKQIDINQKCVFSWITSNRWLAIRLELVGNLVVFCSALLLVIYRKTLTGDVVGFVLSNALNITQTLNWLVRMTSEAETNIVAVERISEYINVENEAPWVTDKRPPADWPRHGEIQFNNYQVRYRPELDLVLKGITCNIKSGEKVGVVGRTGAGKSSLTNCLFRILESAGGQIIIDGIDVASIGLHDLRERLTIIPQDPILFSGSLRMNLDPFNKYSDEEVWRALELAHLRSFVSGLQLGLLSEVTEGGDNLSIGQRQLLCLGRAVLRKSKILVLDEATAAVDLETDSLIQTTIRKEFSQCTVITIAHRLHTIMDSDKIMVLDNGKIVEYGSPEELLSNRGSFYLMAKEAGIENVNHTEL

How the values were obtained:
[1] = substrate: C[C@]12CC[C@@H]3c4ccc(O)cc4CC[C@H]3[C@@H]1CC[C@@H]2O[C@@H]1O[C@H](C(=O)O)[C@@H](O)[C@H](O)[C@H]1O; test: (§1) TP_TRANSPORTER: uptake in membrane vesicle from MRP2-expressing HEK-293 cells; assay type: functional, cell membranes, HEK293
[2] = substrate: CCCCC/C=C\C\C=C/C=C/C=C/[C@@H](SC[C@@H](NC(=O)CC[C@H](N)C(=O)O)C(=O)NCC(=O)O)[C@@H](O)CCCC(=O)O; test: as §1; assay type: functional, cell membranes, HEK293

Protein | Km [1] [µM] | Km [2] [µM]
B1 | 7.2 | 1
B2 | 6.9 | 1.1
